In publication PMC10405849, “Soluble CD93 lectin-like domain sequesters HMGB1 to ameliorate inflammatory diseases” (Theranostics, 2023):

Target: T1, soluble recombinant human CD93 ectodomain protein rCD93D123 (Thr22-Lys580) (human, UniProt Q9NPY3 22-580)
T1 construct: CD93, human, ectodomain D1 (lectin-like domain) + D2 (five EGF-like repeats) + D3 (mucin-like domain), residues Thr22-Lys580; also called soluble rCD93; source: HEK293 cell protein expression system, purified (nickel-chelating Sepharose column)
T1 sequence (looked up): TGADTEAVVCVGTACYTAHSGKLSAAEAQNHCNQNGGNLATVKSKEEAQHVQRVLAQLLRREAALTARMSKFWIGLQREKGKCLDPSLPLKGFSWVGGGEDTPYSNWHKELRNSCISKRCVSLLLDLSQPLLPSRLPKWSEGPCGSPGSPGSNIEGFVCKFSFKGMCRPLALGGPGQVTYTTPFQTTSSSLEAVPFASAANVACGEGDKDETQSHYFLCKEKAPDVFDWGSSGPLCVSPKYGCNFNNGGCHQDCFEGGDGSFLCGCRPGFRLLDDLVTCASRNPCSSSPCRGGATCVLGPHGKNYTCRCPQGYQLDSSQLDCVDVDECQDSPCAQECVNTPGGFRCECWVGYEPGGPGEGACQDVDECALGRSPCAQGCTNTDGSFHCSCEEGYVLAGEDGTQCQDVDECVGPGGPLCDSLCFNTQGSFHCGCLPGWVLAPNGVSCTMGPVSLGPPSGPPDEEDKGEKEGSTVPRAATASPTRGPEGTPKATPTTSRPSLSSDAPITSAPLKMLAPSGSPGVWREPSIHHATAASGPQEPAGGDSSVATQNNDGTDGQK
Test: co-IP; rCD93D123 (5 nM) and HMGB1 (5 nM) incubated 1 hour at 37 °C in 50 mM Tris-HCl, 100 mM NaCl, 0.25% Triton X-100, 1 mM MgCl2, 2 mM EGTA; precipitated with anti-HMGB1 antibody on protein A agarose overnight at 4 °C; blot with anti-c-Myc antibody
Settings: both partners purified

binding result: binds
B1: recombinant human high-mobility group box 1 (HMGB1) protein (natural protein, UniProt P09429 1-215, looked up)
chain: MGKGDPKKPRGKMSSYAFFVQTCREEHKKKHPDASVNFSEFSKKCSERWKTMSAKEKGKFEDMAKADKARYEREMKTYIPPKGETKKKFKDPNAPKRPPSAFFLFCSEYRPKIKGEHPGLSIGDVAKKLGEMWNNTAADDKQPYEKKAAKLKEKYEKDIAAYRAKGKPDAAKKGVVKAEKSKKKKEEEEDEEDEEDEEEEEDEEDEDEEEDDDDE
notes: High-mobility group box 1 protein, human, recombinant; No catalogue number is printed; source: bought: R&D Systems
